Target: T1, short SARS-CoV-2 peptide (10 residues) of the ITC (SARS-CoV-2)
T1 chain: FKEELDKYFK
Assay: ITC

B1: WS6 (monoclonal antibody, IgG) (antibody, V domains shown)
VH: EVQFQQSGTVLARPGASVKMSCKASGYTFTNYWIHWVKQRPGQGLEYIGGTYPGNGDTTYNQKFKGKAKVTAVTPTSTAYMDLSSLTNEDSAVYYCTRTGSYFDYWGQGTTLTVSS
VL: QIVLTQSPAIMSASPGEKVTISCSATSSVSYIYWYQQRPGSSPKPWIYRTSNLASGVPVRFSGSGSGTSYSLTISNMEAEDAATYYCQQYQSYPPTFGAGTKLELK
Kd: 22 nM

From article PMC9284671 (Structure (London, England : 1993), 2022)
